Reference: patent US20260001928A1 (CORTERIA PHARMACEUTICALS, priority 2022, published 2026)
*1 amine or outer side, *2 acyl side, *3 side chain or, on linkers, in order; H or OH if unused. Where no end group is shown, it is not given here. Side-chain parts run from the residue outwards. [ ]: non-standard residue; d: D form. The star is where a group is joined. C18 diacid = O=C(O)CCCCCCCCCCCCCCCCC(=O)*; C16 diacid = O=C(O)CCCCCCCCCCCCCCC(=O)*; γGlu = O=C(O)[C@H](CCC(=O)[*:2])N[*:1]; NMeI = CC[C@H](C)[C@H](NC)C(=O)O; Dap = NC[C@H](N)C(=O)O

T1: CRF1R receptor (UniProt P34998 24-415, limits assumed)
T1 sequence (looked up): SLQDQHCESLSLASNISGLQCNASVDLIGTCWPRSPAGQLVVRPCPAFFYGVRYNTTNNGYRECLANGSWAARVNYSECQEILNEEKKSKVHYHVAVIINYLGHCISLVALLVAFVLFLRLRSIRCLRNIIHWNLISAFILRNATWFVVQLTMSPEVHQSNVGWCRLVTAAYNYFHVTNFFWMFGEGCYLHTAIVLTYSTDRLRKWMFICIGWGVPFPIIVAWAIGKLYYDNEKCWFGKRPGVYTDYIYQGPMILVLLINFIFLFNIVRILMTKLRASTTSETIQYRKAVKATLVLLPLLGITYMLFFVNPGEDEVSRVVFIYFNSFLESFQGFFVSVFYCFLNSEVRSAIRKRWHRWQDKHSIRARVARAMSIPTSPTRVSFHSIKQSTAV


Columns and labels:
[1] = target: human corticotropin-releasing factor 2a (CRF2a receptor) (human), Q13324; assay: cell-based or functional assay
human corticotropin-releasing factor 2a (CRF2a receptor) (human), Q13324, sequence (Q13324 20-411): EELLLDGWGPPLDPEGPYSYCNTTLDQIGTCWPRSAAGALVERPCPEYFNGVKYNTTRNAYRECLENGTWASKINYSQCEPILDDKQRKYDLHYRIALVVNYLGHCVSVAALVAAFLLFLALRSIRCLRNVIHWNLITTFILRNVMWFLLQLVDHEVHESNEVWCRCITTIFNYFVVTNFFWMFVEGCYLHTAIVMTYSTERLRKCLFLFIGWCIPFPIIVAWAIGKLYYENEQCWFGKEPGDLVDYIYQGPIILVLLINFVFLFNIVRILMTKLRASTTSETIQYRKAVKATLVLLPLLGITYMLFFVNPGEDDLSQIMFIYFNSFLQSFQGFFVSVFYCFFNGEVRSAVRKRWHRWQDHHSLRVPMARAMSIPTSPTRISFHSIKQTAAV

CRF1R receptor = target: T1, CRF1R receptor; assay: cell-based or functional assay

Row | Binder | EC50 [nM] (cAMP) [1] | Emax (% I) (CRF1R receptor) [%]
1 | [NMeI]VLSLD[dV]PIKLK([γGlu-C16 diacid])KILLEQEKQKKQREQAETN[Dap]QILAQV-NH2 (N-terminus assumed; SMILES CC[C@H](C)[C@H](NC)C(=O)N[C@H](C(=O)N[C@@H](CC(C)C)C(=O)N[C@@H](CO)C(=O)N[C@@H](CC(C)C)C(=O)N[C@@H](CC(=O)O)C(=O)N[C@@H](C(=O)N1CCC[C@H]1C(=O)N[C@H](C(=O)N[C@@H](CCCCN)C(=O)N[C@@H](CC(C)C)C(=O)N[C@@H](CCCCNC(=O)CC[C@H](NC(=O)CCCCCCCCCCCCCCC(=O)O)C(=O)O)C(=O)N[C@@H](CCCCN)C(=O)N[C@H](C(=O)N[C@@H](CC(C)C)C(=O)N[C@@H](CC(C)C)C(=O)N[C@@H](CCC(=O)O)C(=O)N[C@@H](CCC(N)=O)C(=O)N[C@@H](CCC(=O)O)C(=O)N[C@@H](CCCCN)C(=O)N[C@@H](CCC(N)=O)C(=O)N[C@@H](CCCCN)C(=O)N[C@@H](CCCCN)C(=O)N[C@@H](CCC(N)=O)C(=O)N[C@@H](CCCNC(=N)N)C(=O)N[C@@H](CCC(=O)O)C(=O)N[C@@H](CCC(N)=O)C(=O)N[C@@H](C)C(=O)N[C@@H](CCC(=O)O)C(=O)N[C@H](C(=O)N[C@@H](CC(N)=O)C(=O)N[C@@H](CN)C(=O)N[C@@H](CCC(N)=O)C(=O)N[C@H](C(=O)N[C@@H](CC(C)C)C(=O)N[C@@H](C)C(=O)N[C@@H](CCC(N)=O)C(=O)N[C@H](C(N)=O)C(C)C)[C@@H](C)CC)[C@@H](C)O)[C@@H](C)CC)[C@@H](C)CC)C(C)C)C(C)C) [SEQ ID NO 70] | 0.17 | 0
2 | Ac-IVLSLD[dV]PIKLK([γGlu-C18 diacid])KILLEQEKQKKQREQAETN[Dap]QILAQV-NH2 (SMILES CC[C@H](C)[C@H](NC(C)=O)C(=O)N[C@H](C(=O)N[C@@H](CC(C)C)C(=O)N[C@@H](CO)C(=O)N[C@@H](CC(C)C)C(=O)N[C@@H](CC(=O)O)C(=O)N[C@@H](C(=O)N1CCC[C@H]1C(=O)N[C@H](C(=O)N[C@@H](CCCCN)C(=O)N[C@@H](CC(C)C)C(=O)N[C@@H](CCCCNC(=O)CC[C@H](NC(=O)CCCCCCCCCCCCCCCCC(=O)O)C(=O)O)C(=O)N[C@@H](CCCCN)C(=O)N[C@H](C(=O)N[C@@H](CC(C)C)C(=O)N[C@@H](CC(C)C)C(=O)N[C@@H](CCC(=O)O)C(=O)N[C@@H](CCC(N)=O)C(=O)N[C@@H](CCC(=O)O)C(=O)N[C@@H](CCCCN)C(=O)N[C@@H](CCC(N)=O)C(=O)N[C@@H](CCCCN)C(=O)N[C@@H](CCCCN)C(=O)N[C@@H](CCC(N)=O)C(=O)N[C@@H](CCCNC(=N)N)C(=O)N[C@@H](CCC(=O)O)C(=O)N[C@@H](CCC(N)=O)C(=O)N[C@@H](C)C(=O)N[C@@H](CCC(=O)O)C(=O)N[C@H](C(=O)N[C@@H](CC(N)=O)C(=O)N[C@@H](CN)C(=O)N[C@@H](CCC(N)=O)C(=O)N[C@H](C(=O)N[C@@H](CC(C)C)C(=O)N[C@@H](C)C(=O)N[C@@H](CCC(N)=O)C(=O)N[C@H](C(N)=O)C(C)C)[C@@H](C)CC)[C@@H](C)O)[C@@H](C)CC)[C@@H](C)CC)C(C)C)C(C)C) [SEQ ID NO 128] | 0.17 | 10
